Target: the molecule itself
Test: SEC-MALS

B1: Qin eTud3 (Qin 959-1195) (domain or fragment, Drosophila melanogaster, UniProt Q9VE55 959-1195, looked up)
chain: VRPVELSPYRMPDNTERNKRTTVNILYVRKPDEFYVTLPHFQKAINNLQKSVQKAAAAMYQNMLPRTDWQVGDMCYARVQANCDSQALWYRGVVTGVIPPGITCPIVRYQVHLRDLGELIDDVHSSSLANIDEADMRISSSAKRCHLHGIRPIGDEWSKDAIDFFMDQLKAYNEIHVTGRGRTENSLSVILWGSLSILTGPFSPATIKYVNINKALLMAGMAEKDHNSDSEDDQQSM
  stoichiometry N: 2

From doi:10.1101/2021.10.25.465661 (bioRxiv, 2021)
